For one assay, the target named is T1, HMGB1 peptide 166-183 (UniProt P09429 166-183, also: biotinylated, site not given here).
T1 peptide (looked up): GKPDAAKKGVVKAEKSKK
As to the kind of experiment: ELISA on biotinylated HMGB1 peptides captured on NeutrAvidin, antibody in serial dilution from 10 ug/ml, anti-human IgG-HRP, OD 450. As for the experimental part:
(§1) The plate was then blocked with 4% milk powder dissolved in PBS at 37° C. for 1 hour. The blocking solution was removed and replaced with human anti-HMG1 antibodies at various concentrations (see FIGS. 5A-B). […] HRP activity was detected with Sureblue HRP substrate (KPL). Plates were read at 450 nm using a Kinetic Microplate Reader (Molecular Devices). […] After washing and blocking with 1% BSA in PBS, the biotinylated peptides were individually added into the avidin coated wells and incubated for 30 min at room temperature. The serial diluted antibody G4, S16 and S6 at the initial concentration at 10 μg/ml were then transferred into the wells followed by adding mouse anti human IgG-HRP conjugate (Pierce). Detection was accomplished by adding 50 μl of tetramethylbenzidine (TMB) substrate (KPL) and the absorbance was read at […].
On the technique in general: ELISA stands for enzyme-linked immunosorbent assay.

The target in assay [1] is T2, HMGB1 in joint lysates of adjuvant induced arthritis (AIA) rats (rat, UniProt P63159 2-215).
T2 construct: also called HMGB1 from arthritis joints; AA joint lysates
T2 sequence (looked up): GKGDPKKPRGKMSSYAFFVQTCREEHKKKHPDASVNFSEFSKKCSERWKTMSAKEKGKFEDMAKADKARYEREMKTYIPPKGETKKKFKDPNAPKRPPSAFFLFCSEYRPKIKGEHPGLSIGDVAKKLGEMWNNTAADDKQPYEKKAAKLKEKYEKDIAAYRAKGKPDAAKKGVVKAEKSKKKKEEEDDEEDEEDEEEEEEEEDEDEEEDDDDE
As to the kind of experiment: immunoprecipitation from AIA rat joint lysate, Western blot probed with biotinylated S16 (the method names G4, S6 and isotype control, the legend names S16 for lane 2). As for the experimental part:
Immunoprecipitation and Western Blot: Anti-HMGB1 mAbs (G4 and S6) and isotype control were first biotinylated using EZ-Link Sulfo-NHS-LC-Biotin as instructed by the manufacturer (Pierce). After labeling, the mAb was tested for binding to HMGB1 by ELISA with unlabeled mAbs as controls. The biological samples, joint lysate (30 μl), was mixed with […] biotinylated G4, S6 or isotype control overnight at 4° C. in 300 μl IP buffer [containing 1×PBS, pH 7.2 (Invitrogen), 0.1% Tween 20, 0.5 M sodium chloride, 10 mM sodium butyrate, and a 1:100 dilution of Phosphatase Inhibitor Cocktail I (Sigma)]. For sepsis sera, Tween 20, sodium chloride, sodium butyrate, and Phosphatase Inhibitor Cocktail I were added to 500 μl sera with the same final concentration as IP buffer. Streptavidin Sepharose beads (GE Healthcare) were blocked in 4% BSA-PBS overnight at 4° C., then washed three times with PBS and resuspended in 1×PBS resulting in 50% slurry. The bead slurry (60 μl) was then added to the overnight mAb/sample mixture and mixed for 20 minutes at room temperature. The beads were washed once with PBS, five times with IP Buffer and then washed twice with PBS by spinning at 1000 g for two min. […] The bands were detected by LumiGlo substrate solution (KPL) after washing.
(In general: In western blotting, separated proteins are transferred to a membrane and probed.)

In assay [2] the target is T3, HMGB1 in sera of septic peritonitis mice (mouse, UniProt P63158 1-215).
T3 construct: also called HMGB1 from sepsis sera (ELISA); peritonitis sera
T3 sequence (looked up): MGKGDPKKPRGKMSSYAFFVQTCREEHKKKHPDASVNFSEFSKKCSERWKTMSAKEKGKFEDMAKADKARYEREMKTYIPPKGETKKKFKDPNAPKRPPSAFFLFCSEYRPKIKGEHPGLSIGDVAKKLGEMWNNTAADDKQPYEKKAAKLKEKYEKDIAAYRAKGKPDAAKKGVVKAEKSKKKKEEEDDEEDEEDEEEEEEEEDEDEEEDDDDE
As to the kind of experiment: sandwich ELISA: antibody (10 ug/ml) captured on anti-human Fc, sample added, mouse anti-HMGB1 and anti-mouse-HRP, OD 450. As for the experimental part: HMGB1 Detection from Biological Samples: For detection of the HMGB1 from AA joint homogenates and peritonitis sera, sandwich ELISA was performed. Goat anti-human Fc (Pierce) 14 μg/ml in PBS was coated on Immunlon IV microtiter plate over night at 4° C. After washing and blocking with 5% milk 1 hr at room temperature, G4 or S6 in blocking buffer (10 μg/ml) were added to each well of the blocked plate. The plate was washed 1 hour later and 25 μl of AIA homogenates containing 0.8 μg/ml of HMGB1 or peritonitis sera containing 7 μg/ml of HMGB1 in 0.5 M NaCl/blocking buffer were added to the wells at two fold serial dilutions. The unbound materials were removed by washing one hr after incubation. The bound HMGB1 was detected by a mouse anti-HMGB1 antibody at 2 μg/ml followed by an anti-mouse antibody conjugated with horseradish peroxidase. Mouse peritonitis sera was obtained by heart puncture 7 days after infection with heat killed staphylococcus aureus. Joint lysate was prepared from the whole paw of AIA rats as described in Example 6 below. Human sepsis sera were purchased from a commercial source.

The target of the next assay is T4, 106-123 (also: biotinylated, site not given here).
T4 construct: Bar group label on the sheet
T4 peptide: CSEYRPKIKGEHPGLSIG
As to the kind of experiment: ELISA on biotinylated HMGB1 peptides captured on NeutrAvidin, antibody in serial dilution from 10 ug/ml, anti-human IgG-HRP, OD 450. The method, then:
as §1

In assay [3] the target is T5, HMGB1 B-box peptide 108-138 (UniProt P09429 108-138, biotinylated).
T5 peptide (looked up): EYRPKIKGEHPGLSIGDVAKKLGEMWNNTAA
As to the kind of experiment: ELISA, biotinylated peptides on avidin plate. As for the experimental part:
as §1

The target of assay [4] is T6, HMGB1 C-terminal tail peptide 188-215 (human, biotinylated).
T6 peptide: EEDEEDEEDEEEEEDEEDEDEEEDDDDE
As to the kind of experiment: ELISA, biotinylated peptides on avidin plate. As for the experimental part: as §1

No end group written: not given here.

B1: anti-HMG1 antibody S16 (antibody, V domains shown)
VH: EVQLLESGGGLVQPGGSLRLSCAASGFTFSWYSMLWVRQAPGKGLEWVSYISPSGGFTNYADSVKGRFTISRDNSKNTLYLQMNSLRAEDTAVYYCARWDYNSGWYYDHWGQGTLVTVSS
VL: DIQMTQSPDTLSLSPGERATLSCRASQSVNSRNLAWYQQKPGQAPRLLIYGASTRATGIPDRFSGSVSGTEFTLTISSLQPDDFATYYCQQYNSYFTFGQGTKLEIK
notes: also called ATCC PTA-6259
For the molecule B1, the binding result (with HMGB1 peptide 166-183; in assay [1]) was “binds” throughout.

B2: anti-HMG1 antibody S6 (antibody, V domains shown)
VH: EVQLLESGGGLVQPGGSLRLSCAASGFTFSWYDMSWVRQAPGKGLEWVSRISPSGGYTMYADSVKGRFTISRDNSKNTLYLQMNSLRAEDTAVYYCARLEVGATSGGTAFDIWGQGTMVTVSS
VL: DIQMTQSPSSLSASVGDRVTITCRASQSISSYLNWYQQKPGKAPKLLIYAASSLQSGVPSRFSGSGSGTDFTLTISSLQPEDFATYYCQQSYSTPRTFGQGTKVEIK
notes: also called ATCC PTA-6143
Consider B2, for which the binding result in assay [2] is “binds”.

B3: anti-HMG1 antibody G4 (antibody, V domains shown)
VH: EVQLLESGGGLVQPGGSLRLSCAASGFTFSWYDMTWVRQAPGKGLEWVSSISPSGGYTKYADSVKGRFTISRDNSKNTLYLQMNSLRAEDTAVYYCTTEFYDYLDVWGKGTTVTVSS
VL: DIQMTQSPGTLSLSPGEGATLSCRASQSVSSTYLAWYQQKPGQAPRLLIYEASKRATGTPARFSGSGSGTDFTLSISSLEPEDFAVYYCQHRHNWPPQWTFGQGTKVEVK
notes: also called ATCC PTA-6258
Consider B3, for which the binding result (with 106-123; in assay [3]; in assay [4]) was “binds” in each case.

The record behind these values is patent publication US20080311122A1 (AstraZeneca / MedImmune, published 2008).
